The test has as its target PNAd (peripheral node addressin), MECA-79 purified human tonsil lysate. Kind of test: precipitation of PNAd with the chimera.

The values that follow come from US20020025923A1.

Some results are limits rather than exact numbers.

B1: L-selectin/IgG chimera (entire extracellular domain of murine L-selectin fused to the Fc domain of human IgG1) (Fc fusion, UniProt P18337 39-332, looked up, not shown: a dimerising Fc or GST)
chain: WTYHYSEKPMNWENARKFCKQNYTDLVAIQNKREIEYLENTLPKSPYYYWIGIRKIGKMWTWVGTNKTLTKEAENWGAGEPNNKKSKEDCVEIYIKRERDSGKWNDDACHKRKAALCYTASCQPGSCNGRGECVETINNHTCICDAGYYGPQCQYVVQCEPLEAPELGTMDCIHPLGNFSFQSKCAFNCSEGRELLGTAETQCGASGNWSSPEPICQVVQCEPLEAPELGTMDCIHPLGNFSFQSKCAFNCSEGRELLGTAETQCGASGNWSSPEPICQETNRSFSKIKEGDYN
As to B1, the percent precipitated is more than 90%.
